We go through ten molecules from US20220315654A1 (NOVIMMUNE, published 2022).

Positions count from the first letter of the chain named.

Test [1] concerns the target T1, recombinant mouse PD-L1 soluble protein (biotinylated) (mouse, UniProt Q9EP73 19-239, limits assumed, biotinylated).
T1 construct: Two sources are named for the two assays
Put plainly: sandwich ELISA: antibody captured on coated anti-human Fc, biotinylated recombinant mouse PD-L1 titrated (x axis, nM), streptavidin-HRP/Amplex red fluorescence. (In an ELISA, binding on a coated surface is turned into a signal by an enzyme label.)

In test [2] the target is T2, recombinant cynomolgus monkey PD-L1 soluble protein (biotinylated) (cynomolgus monkey, UniProt G7PSE7 19-238, biotinylated (site not stated); vendor tag not carried in the letters).
T2 construct: Two suppliers are named for the two assays; also called Cyno PD-L1; cynomolgus PD-L1; not shown: vendor tag(s) of the recombinant proteins (Sino Biological; Acrobiosystems #PD1-052H4) and the biotin label
T2 sequence (G7PSE7 entry or part of it limits assumed): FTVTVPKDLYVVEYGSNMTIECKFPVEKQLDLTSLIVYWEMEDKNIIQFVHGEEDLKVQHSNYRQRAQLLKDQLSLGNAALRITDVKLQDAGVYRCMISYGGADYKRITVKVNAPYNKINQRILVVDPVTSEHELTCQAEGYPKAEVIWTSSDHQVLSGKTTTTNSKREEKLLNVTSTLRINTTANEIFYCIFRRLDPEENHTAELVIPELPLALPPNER
In words: sandwich ELISA: antibody captured on coated anti-human Fc, biotinylated recombinant cynomolgus PD-L1 titrated (x axis, nM), streptavidin-HRP/Amplex red fluorescence.

Test [3] addresses T3, recombinant human PD-L1 soluble protein (biotinylated) (human, UniProt Q9NZQ7 19-238, biotinylated).
T3 construct: Bought soluble protein; also called hPD-L1
Put plainly: sandwich ELISA: antibody captured on coated anti-human Fc, biotinylated recombinant human PD-L1 titrated (x axis, nM), streptavidin-HRP/Amplex red fluorescence.

Test [4] concerns the target T4, recombinant human PD-L2 soluble protein (biotinylated) (human, UniProt Q9BQ51 20-220, limits assumed, biotinylated).
T4 construct: Bought soluble protein
T4 sequence (looked up): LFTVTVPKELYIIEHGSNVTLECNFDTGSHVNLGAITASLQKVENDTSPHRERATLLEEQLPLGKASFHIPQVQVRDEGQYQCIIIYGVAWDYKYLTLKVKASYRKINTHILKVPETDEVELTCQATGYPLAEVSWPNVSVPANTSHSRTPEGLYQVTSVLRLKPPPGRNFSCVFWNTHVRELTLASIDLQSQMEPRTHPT
Put plainly: sandwich ELISA: antibody captured on coated anti-Fc, biotinylated recombinant human PD-L2 titrated, streptavidin-HRP/Amplex red fluorescence.

Test [5] has as its target T5, human PD-L1 on cells (human PD-L1-transfected CHO cells; IFNg-induced HT-1080 tumor cells) (human, UniProt Q9NZQ7 19-290).
T5 construct: whole, on cells; CHO transfectants are negative for human CD47; HT-1080 cells also carry CD47; also called hPD-L1-transfected CHO cells; PD-L1+CD47+ HT-1080
In words: inhibition of human PD-1-moFc binding to IFNg-induced PD-L1+CD47+ HT-1080 cells, CellInsight CX5.

Test [6] has as its target T3, recombinant human PD-L1 soluble protein …. Put plainly: BLI (OctetRED96), biotinylated PD-L1 on streptavidin biosensors, bsAb in solution, 1:1 global fit, 30 °C.
Test [7] deals with T6, human CD47 on cells (Raji, Nalm-6, HT-1080 tumor cells, human red blood cells) (human, UniProt Q08722 19-323).
T6 construct: whole, on cells; Raji, Nalm-6 and red blood cells carry no or very little PD-L1; HT-1080 carries both targets; also called IAP
Put plainly: flow cytometry on human red blood cells (CD47+, PD-L1-), detection with AF647 anti-human Fc F(ab')2.

The target of test [8] is T5, human PD-L1 on cells (human …). Put plainly: inhibition of human PD-1-moFc binding to human PD-L1-transfected CHO cells, CellInsight CX5.
Test [9] deals with T1, recombinant mouse PD-L1 soluble protein …. In words: BLI (OctetRED96), biotinylated mouse PD-L1 on streptavidin biosensors, bsAb in solution, 1:1 global fit, 30 °C.
Test [10] has as its target T2, recombinant cynomolgus monkey PD-L1 …. In words: BLI (OctetRED96), biotinylated cynomolgus PD-L1 on streptavidin biosensors, bsAb in solution, 1:1 global fit, 30 °C.
The target of test [11] is T1, recombinant mouse PD-L1 soluble protein …. In words: sandwich ELISA: antibody captured on coated anti-human Fc, biotinylated recombinant mouse PD-L1 titrated, streptavidin-HRP/Amplex red fluorescence.

T1 sequence (Q9EP73 19-239 limits assumed): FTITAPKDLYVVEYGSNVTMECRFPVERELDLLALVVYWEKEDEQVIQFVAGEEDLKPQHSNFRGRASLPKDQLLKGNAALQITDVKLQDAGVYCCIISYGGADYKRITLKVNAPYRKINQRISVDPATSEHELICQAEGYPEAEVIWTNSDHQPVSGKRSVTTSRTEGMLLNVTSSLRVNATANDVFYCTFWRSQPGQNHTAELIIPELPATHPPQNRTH
T5 sequence (Q9NZQ7 19-290): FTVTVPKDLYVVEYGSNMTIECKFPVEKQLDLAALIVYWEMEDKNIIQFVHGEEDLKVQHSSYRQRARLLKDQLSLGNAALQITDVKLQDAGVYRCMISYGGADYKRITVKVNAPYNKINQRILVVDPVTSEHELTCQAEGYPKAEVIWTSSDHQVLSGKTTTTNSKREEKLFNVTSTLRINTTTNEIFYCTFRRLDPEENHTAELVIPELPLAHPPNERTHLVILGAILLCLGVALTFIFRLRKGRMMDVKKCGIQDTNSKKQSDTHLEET
T3 sequence (Q9NZQ7 19-238 limits assumed): as the sequence (G7PSE7 entry or part of it limits assumed) above, with T33A, S34A, N62S, Q68R, R82Q, L173F, A185T, I192T, L215H counted along it

B1: S79 anti-PD-L1 mAb (antibody, human IgG1, lambda, V domains shown)
VH: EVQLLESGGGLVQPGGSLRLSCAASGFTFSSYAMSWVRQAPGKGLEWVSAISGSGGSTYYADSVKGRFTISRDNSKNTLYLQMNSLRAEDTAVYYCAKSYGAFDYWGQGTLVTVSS
VL: QSALTQPASVSGSPGQSITISCTGTSSDVFRPPLVSWYQQHPGKAPKLMIYFASLRPSGVSNRFSGSKSGNTASLTISGLQAEDEADYYCSSWDHTGDGHVFGGGTKLTVLG
notes: Bivalent monospecific IgG1 anti-PD-L1 antibody; also called S79_Sc3_1G7_VLCL2 aPDL1 IGLV2-23; anti-PD-L1 mAb S79
As for B1, the EC50 (read off the curve) – broadly, the concentration giving half of the maximal effect – is ~30 pM in test [1], ~30 pM in [2] and ~70 pM in [3]. Besides, in test [4], the binding result was “no binding (tested: about 40 nM PD-L2 protein)”. Also, in [5], the IC50 (as a rule, the concentration needed to halve the response being measured) amounted to 2.52 pM.

B2: K2×S15 CD47×PD-L1 bispecific antibody (bispecific antibody, human IgG1, kappa, lambda)
heavy: not shown
light 1: not shown
light 2: QSALTQPASVSGSPGQSITISCTGTSSDVVKNNFVSWYQQHPGKAPKLMIYFGSVRPSGVSNRFSGSKSGNTASLTISGLQAEDEADYYCSSWDEPDRPFGGGTKLTVLGQPKAAPSVTLFPPSSEELQANKATLVCLISDFYPGAVTVAWKADSSPVKAGVETTTPSKQSNNKYAASSYLSLTPEQWKSHRSYSCQVTHEGSTVEKTVAPTECS
notes: also called K2xS15; K2×S15 bsAb
Regarding B2, in test [6], the Kd – broadly, the concentration at which binding is half-saturated – is 3000 pM.

B3: K2×S58 CD47×PD-L1 bispecific antibody (bispecific antibody, human IgG1, kappa, lambda)
heavy: not shown
light 1: not shown
light 2: B2 light 2 with T23N, G24S, T25P, R56T, P57G, S58P
notes: also called K2xS58; K2×S58 bsAb
As for B3, the Kd in test [6] was 830 pM.

B4: S46 bsAb (bispecific antibody, human IgG1, kappa, lambda)
common heavy chain: not shown
kappa light chain (anti-CD47 K2): not shown
lambda light chain (anti-PD-L1 S46): QSALTQPASVSGSPGQSITISCTGTSSDVLRPPLVSWYQQHPGKAPKLMIYFASLRPSGVSNRFSGSKSGNTASLTISGLQAEDEADYYCSSWDNAGDGHVFGGGTKLTVLGQPKAAPSVTLFPPSSEELQANKATLVCLISDFYPGAVTVAWKADSSPVKAGVETTTPSKQSNNKYAASSYLSLTPEQWKSHRSYSCQVTHEGSTVEKTVAPTECS
notes: also called K2xS46 CD47xPD-L1 bispecific antibody; K2xS46
B4: the “EC50 (read off the curve)” value was ~70 pM in test [1], ~600 pM in [2] and ~100 pM in [3].

B5: K2×S23 CD47×PD-L1 bispecific antibody (bispecific antibody, human IgG1, kappa, lambda)
heavy: not shown
light 1: not shown
light 2: B4 lambda light chain (anti-PD-L1 S46) with L30A, R31K, P32I
notes: also called K2xS23; K2×S23 bsAb
Regarding B5, the values for the binding result in test [1], in test [7] and in [4] were “binds”, “binds” and “no binding (tested: about 40 nM PD-L2 protein)”, respectively. Besides, the “EC50 (read off the curve)” value in test [3] is ~100 pM. The Kd in test [6] was found to be 920 pM.

B6: K2×S79 CD47×PD-L1 bispecific antibody (bispecific antibody, human IgG1, kappa, lambda)
heavy: not shown
light 1: not shown
light 2: B4 lambda light chain (anti-PD-L1 S46) with L30F, N95H, A96T
notes: also called K2xS79; S79 bsAb
Regarding B6, the “EC50 (read off the curve)” value is ~30 pM in test [1], ~30 pM in test [2] and ~70 pM in test [3]. The IC50 in test [8] came to 30 pM. In addition, the Kd in test [6] was found to be 500 pM; in [9], 520 pM; in [10] it was 1350 pM. For the same molecule, the binding result in test [4] was “no binding (tested: about 40 nM PD-L2 protein)”.

B7: K2×S93 CD47×PD-L1 bispecific antibody (bispecific antibody, human IgG1, kappa, lambda)
heavy: not shown
light 1: not shown
light 2: QSVLTQPPSASGTPGQRVTISCVSTSDHIAHKPVNWYQQLPGTAPKLLIYHDTSRPDGVPDRFSGSKSGTSASLAISGLQSEDEADYYCAAWDFATWPATEVFGGGTKLTVLGQPKAAPSVTLFPPSSEELQANKATLVCLISDFYPGAVTVAWKADSSPVKAGVETTTPSKQSNNKYAASSYLSLTPEQWKSHRSYSCQVTHEGSTVEKTVAPTECS
notes: also called K2xS93; K2×S93 bsAb
With B7, in test [6], the Kd turned out to be 700 pM.

B8: K2×S94 CD47×PD-L1 bispecific antibody (bispecific antibody, human IgG1, kappa, lambda)
heavy: not shown
light 1: not shown
light 2: B7 light 2 with V23I, T25G, D27V, H28D, R55T
notes: also called K2xS94; S94 bsAb
As for B8, the “EC50 (read off the curve)” value is ~30 pM in test [2] and ~70 pM in test [3]. The binding result in test [11] is on record as “no binding (tested: about 33 nM PD-L1 protein)”. This molecule also had an IC50 in test [8] of 50 pM. Also, the Kd in [6] came out at 700 pM.

B9: K2×S96 CD47×PD-L1 bispecific antibody (bispecific antibody, human IgG1, kappa, lambda)
heavy: not shown
light 1: not shown
light 2: B7 light 2 with V23N, S24L, T25P, D27A, H28D, R55V, P56V, D57T
notes: also called K2xS96; K2×S96 bsAb
On to B9, for which the Kd in test [6] was found to be 800 pM.

B10: S100 anti-PD-L1 mAb (antibody, human IgG1, lambda, V domains shown)
VH: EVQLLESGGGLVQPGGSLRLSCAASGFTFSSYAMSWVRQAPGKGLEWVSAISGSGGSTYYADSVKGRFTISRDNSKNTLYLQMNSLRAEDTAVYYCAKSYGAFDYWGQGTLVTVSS
VL: QSVLTQPPSASGTPGQRVTISCSGSSSNIENKPVNWYQQLPGTAPKLLIYHDTTRPSGVPDRFSGSKSGTSASLAISGLQSEDEADYYCAAWDFATWPATEVFGGGTKLTVLG
notes: Bivalent monospecific anti-PD-L1 antibody; also called anti-PD-L1 mAb 5100
Take B10: the “EC50 (read off the curve)” value in test [2] was ~30 pM; in test [3] it was ~70 pM. The binding result was “no binding (tested: about 33 nM PD-L1 protein)” in test [11] and “no binding (tested: about 40 nM PD-L2 protein)” in [4]. Besides, the IC50 in [5] was 0.84 pM.
